Experiments:
AncSZ = assay: phosphorylation enrichment, bacterial display (enrichment ratio); higher = better substrate or ligand; peptides without Tyr show the background
EPHB1 = EPHB1 (UniProt P54762); assay: as above
EPHB2 = EPHB2 (UniProt P29323); assay: as above
FGFR1 = FGFR1 (UniProt P11362); assay: as above
FGFR3 = FGFR3 (UniProt P22607); assay: as above
Fer (mouse) = assay: as above
Fes = Fes (UniProt P07332); assay: as above
Fyn = Fyn (UniProt P06241); assay: as above
Hck = Hck (UniProt P08631); assay: as above
Jak2 = Jak2 (UniProt O60674); assay: as above
MERTK = MERTK (UniProt Q12866); assay: as above
Chain of MERTK (Q12866 whole entry, looked up): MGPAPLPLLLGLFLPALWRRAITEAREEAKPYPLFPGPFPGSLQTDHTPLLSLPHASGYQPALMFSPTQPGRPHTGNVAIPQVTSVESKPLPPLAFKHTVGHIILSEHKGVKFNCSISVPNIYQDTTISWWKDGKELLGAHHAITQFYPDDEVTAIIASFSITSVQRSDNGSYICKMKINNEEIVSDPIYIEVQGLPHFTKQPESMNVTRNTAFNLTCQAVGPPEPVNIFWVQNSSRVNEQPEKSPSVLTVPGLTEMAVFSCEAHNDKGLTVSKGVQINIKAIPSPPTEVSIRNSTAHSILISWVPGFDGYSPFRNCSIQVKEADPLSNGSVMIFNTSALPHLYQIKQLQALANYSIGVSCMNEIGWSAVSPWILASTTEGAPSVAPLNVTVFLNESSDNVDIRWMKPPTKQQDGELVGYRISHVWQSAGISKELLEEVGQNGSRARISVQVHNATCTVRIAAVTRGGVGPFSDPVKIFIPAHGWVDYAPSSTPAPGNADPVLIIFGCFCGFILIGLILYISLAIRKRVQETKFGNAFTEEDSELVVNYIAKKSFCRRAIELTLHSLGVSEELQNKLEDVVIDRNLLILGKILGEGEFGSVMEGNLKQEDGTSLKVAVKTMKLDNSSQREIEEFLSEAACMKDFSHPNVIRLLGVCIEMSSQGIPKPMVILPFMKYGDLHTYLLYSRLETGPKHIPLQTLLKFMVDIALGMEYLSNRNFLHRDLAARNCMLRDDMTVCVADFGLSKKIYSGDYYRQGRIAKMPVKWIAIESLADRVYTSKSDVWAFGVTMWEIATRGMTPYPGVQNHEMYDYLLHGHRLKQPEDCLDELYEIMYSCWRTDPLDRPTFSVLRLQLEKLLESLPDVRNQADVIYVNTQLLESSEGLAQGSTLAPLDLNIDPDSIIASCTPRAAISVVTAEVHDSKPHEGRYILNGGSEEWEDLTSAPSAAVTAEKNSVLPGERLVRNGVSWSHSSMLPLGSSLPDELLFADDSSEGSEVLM

c-Abl (mouse) = assay: as above
c-Src = assay: as above
Grb2 SH2 = Grb2 SH2 (UniProt P62993); assay: SH2 binding enrichment of the phosphorylated peptide, bacterial display (enrichment ratio); higher = better substrate or ligand; peptides without Tyr show the background
SHP2-C SH2 = assay: as above
c-Src SH2 = assay: as above
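For SH2 binding enrichment of the phosphorylated peptide, bacterial display in this document: peptide library displayed on the E. coli surface as eCPX fusions, selected cells deep-sequenced, score is each peptide's frequency after selection divided by its frequency in the input.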
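For phosphorylation enrichment, bacterial display in this document: 11-residue human phosphosite peptides and single-mutation variants displayed on the E. coli surface, counted by deep sequencing, each peptide's frequency after selection divided by its frequency in the unselected input library; frequency after pTyr selection over input frequency; kinase dosed for 20-30% of maximal phosphorylation in three min.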

Chain of Fyn (P06241 whole entry, looked up): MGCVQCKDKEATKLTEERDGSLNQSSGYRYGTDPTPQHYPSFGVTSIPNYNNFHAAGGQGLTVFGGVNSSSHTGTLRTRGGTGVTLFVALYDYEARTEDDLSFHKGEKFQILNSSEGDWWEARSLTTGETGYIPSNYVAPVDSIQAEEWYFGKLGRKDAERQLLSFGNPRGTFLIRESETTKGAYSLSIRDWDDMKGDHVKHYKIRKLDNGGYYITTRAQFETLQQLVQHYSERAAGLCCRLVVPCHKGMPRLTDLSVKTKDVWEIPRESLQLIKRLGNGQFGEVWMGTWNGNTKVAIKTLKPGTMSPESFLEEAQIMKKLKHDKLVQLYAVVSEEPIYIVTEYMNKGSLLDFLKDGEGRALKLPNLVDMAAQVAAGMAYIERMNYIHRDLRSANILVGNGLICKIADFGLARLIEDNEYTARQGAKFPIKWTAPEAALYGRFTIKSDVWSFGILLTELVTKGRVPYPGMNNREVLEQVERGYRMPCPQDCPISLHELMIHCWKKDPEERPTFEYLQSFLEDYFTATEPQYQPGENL
Chain of FGFR3 (P22607 whole entry, looked up): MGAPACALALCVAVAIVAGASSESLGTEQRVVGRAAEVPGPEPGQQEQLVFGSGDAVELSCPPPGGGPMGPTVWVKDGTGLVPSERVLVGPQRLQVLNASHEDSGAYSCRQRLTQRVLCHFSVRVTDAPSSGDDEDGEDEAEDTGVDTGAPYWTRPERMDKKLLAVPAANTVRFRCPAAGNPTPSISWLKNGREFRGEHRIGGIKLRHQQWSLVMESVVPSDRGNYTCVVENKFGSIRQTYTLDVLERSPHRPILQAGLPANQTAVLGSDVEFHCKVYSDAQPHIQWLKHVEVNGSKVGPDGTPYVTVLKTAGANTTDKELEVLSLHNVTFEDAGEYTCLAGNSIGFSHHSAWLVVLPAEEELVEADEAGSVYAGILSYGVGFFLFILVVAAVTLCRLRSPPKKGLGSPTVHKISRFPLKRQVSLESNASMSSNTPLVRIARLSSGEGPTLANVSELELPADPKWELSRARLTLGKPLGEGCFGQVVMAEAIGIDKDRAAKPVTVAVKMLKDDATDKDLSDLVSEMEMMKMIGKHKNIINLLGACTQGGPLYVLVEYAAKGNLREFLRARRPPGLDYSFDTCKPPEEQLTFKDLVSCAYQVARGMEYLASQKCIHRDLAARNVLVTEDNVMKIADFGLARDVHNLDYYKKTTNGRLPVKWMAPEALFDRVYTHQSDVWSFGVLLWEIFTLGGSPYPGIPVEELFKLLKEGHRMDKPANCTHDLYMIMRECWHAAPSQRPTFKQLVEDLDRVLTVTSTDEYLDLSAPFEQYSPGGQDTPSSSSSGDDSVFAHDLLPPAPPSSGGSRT
Chain of EPHB1 (P54762 whole entry, looked up): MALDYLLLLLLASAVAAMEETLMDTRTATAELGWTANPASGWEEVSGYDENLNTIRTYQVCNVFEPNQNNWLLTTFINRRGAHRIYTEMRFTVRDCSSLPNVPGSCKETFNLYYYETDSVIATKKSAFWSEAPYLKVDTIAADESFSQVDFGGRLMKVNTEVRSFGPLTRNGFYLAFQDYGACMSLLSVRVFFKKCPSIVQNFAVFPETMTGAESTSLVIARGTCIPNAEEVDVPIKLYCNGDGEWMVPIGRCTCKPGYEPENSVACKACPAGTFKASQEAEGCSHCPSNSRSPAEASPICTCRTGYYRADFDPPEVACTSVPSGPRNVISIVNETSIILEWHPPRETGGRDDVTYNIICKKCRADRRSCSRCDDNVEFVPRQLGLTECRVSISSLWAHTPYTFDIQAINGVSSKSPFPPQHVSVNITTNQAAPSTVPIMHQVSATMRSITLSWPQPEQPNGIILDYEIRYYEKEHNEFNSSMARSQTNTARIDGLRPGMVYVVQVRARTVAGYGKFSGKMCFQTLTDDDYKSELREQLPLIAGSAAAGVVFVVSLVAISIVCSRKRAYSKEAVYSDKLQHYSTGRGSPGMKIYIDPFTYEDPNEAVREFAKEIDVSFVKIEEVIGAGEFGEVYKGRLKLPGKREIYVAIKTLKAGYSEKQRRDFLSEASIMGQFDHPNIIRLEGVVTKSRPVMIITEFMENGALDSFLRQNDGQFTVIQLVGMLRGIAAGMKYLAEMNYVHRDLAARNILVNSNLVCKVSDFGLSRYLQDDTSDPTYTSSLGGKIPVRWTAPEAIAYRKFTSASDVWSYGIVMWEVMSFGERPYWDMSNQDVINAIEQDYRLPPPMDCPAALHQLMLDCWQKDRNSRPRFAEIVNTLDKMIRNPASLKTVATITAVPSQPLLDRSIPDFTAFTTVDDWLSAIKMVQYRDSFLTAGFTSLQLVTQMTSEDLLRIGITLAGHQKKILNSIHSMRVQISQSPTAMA
Chain of FGFR1 (P11362 whole entry, looked up): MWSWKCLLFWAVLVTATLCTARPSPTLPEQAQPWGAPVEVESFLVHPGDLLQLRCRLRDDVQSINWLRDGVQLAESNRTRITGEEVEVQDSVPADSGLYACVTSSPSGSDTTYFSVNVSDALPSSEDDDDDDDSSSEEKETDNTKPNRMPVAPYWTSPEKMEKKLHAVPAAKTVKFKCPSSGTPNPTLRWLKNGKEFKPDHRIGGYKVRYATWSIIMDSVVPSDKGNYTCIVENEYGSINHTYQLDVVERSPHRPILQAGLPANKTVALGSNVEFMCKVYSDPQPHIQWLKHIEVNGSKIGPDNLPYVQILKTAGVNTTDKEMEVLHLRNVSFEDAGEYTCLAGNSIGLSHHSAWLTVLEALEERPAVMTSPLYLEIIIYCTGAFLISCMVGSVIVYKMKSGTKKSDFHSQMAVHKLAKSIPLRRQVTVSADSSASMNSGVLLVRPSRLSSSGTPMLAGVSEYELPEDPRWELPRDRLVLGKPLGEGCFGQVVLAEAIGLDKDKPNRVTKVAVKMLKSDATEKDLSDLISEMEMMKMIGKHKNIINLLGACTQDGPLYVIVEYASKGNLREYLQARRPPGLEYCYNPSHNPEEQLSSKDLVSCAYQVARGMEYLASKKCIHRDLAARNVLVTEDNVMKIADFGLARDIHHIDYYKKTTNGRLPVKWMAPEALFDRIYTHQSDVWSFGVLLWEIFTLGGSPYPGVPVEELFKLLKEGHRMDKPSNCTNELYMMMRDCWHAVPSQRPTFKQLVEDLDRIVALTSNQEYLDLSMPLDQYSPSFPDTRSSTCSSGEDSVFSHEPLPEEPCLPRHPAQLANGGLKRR
Chain of Fes (P07332 whole entry, looked up): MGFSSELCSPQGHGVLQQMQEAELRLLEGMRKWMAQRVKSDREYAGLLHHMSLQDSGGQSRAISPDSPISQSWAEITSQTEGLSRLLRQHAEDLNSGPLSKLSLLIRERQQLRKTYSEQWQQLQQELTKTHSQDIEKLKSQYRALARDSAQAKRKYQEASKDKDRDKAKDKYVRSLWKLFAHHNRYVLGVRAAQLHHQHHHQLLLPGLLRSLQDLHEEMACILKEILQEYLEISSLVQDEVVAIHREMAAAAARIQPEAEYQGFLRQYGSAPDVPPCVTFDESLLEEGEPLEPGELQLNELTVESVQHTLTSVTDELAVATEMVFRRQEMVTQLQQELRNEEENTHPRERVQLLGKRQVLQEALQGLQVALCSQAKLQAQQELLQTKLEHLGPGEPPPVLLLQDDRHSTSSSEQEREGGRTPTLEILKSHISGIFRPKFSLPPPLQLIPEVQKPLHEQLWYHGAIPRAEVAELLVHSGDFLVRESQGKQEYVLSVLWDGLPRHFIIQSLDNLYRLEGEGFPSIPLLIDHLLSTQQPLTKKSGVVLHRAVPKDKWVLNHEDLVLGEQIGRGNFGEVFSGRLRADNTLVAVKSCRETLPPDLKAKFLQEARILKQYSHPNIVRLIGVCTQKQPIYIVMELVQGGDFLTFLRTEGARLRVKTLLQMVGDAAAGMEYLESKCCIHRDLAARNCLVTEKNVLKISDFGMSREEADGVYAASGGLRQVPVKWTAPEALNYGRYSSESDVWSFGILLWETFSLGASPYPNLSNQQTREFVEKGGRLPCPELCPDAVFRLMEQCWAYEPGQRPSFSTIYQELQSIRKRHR

Row | Sequence | SH2 binding enrichment (Grb2 SH2) | SH2 binding enrichment (SHP2-C SH2) | SH2 binding enrichment (c-Src SH2) | phosphorylation enrichment (AncSZ) | phosphorylation enrichment (EPHB1) | phosphorylation enrichment (EPHB2) | phosphorylation enrichment (FGFR1) | phosphorylation enrichment (FGFR3) | phosphorylation enrichment (Fer (mouse)) | phosphorylation enrichment (Fes) | phosphorylation enrichment (Fyn) | phosphorylation enrichment (Hck) | phosphorylation enrichment (Jak2) | phosphorylation enrichment (MERTK) | phosphorylation enrichment (c-Abl (mouse)) | phosphorylation enrichment (c-Src)
1 | LFEDHYLLGTS [ASS1_Y87_R86H_YF] | 1.22 | 0.634 | 0.534 | 1.27 | 0.618 | 0.586 | 0.494 | 0.707 | 0.569 | 1.15 | 0.783 | 0.566 | 1.15 | 0.384 | 0.662 | 1.01
2 | LFQAKYQIRYR [CRLF1_Y272] | 1.46 | 1.67 | 1.22 | 1.07 | 0.79 | 0.517 | 0.566 | 0.789 | 0.325 | 1.33 | 0.477 | 0.763 | 0.949 | 0.465 | 0.779 | 0.531
3 | LFSGDYFRIQG [DDR2_Y740_YF] | 1.03 | 0.652 | 0.674 | 4.61 | 6.99 | 4.1 | 23.1 | 15.7 | 0.739 | 2.04 | 1.36 | 1.57 | 23.4 | 2.08 | 1.67 | 3.77
4 | LFSNAYLNDLA [ALDH1A1_Y119_YF] | 4.23 | 0.627 | 1.29 | 1.14 | 0.794 | 0.723 | 0.986 | 1.25 | 0.688 | 1.58 | 1.12 | 1 | 1.11 | 0.807 | 1.14 | 1.15
5 | LGGSPYPSVPV [FGFR1_Y701_G703S] | 0.915 | 0.608 | 0.476 | 1.04 | 0.85 | 0.735 | 0.784 | 0.646 | 0.675 | 1.25 | 0.564 | 0.817 | 0.645 | 0.614 | 0.747 | 0.453
6 | LGQRIYQYIRS [DYRK1B_Y271_Q275R] | 1.14 | 1.51 | 3.25 | 1.42 | 11.1 | 3.2 | 1.54 | 0.959 | 4.1 | 1.56 | 1.65 | 5.58 | 1.98 | 7.5 | 2.38 | 3.09
7 | LIDGYYRLTED [JAK2_Y373_A377E] | 0.886 | 4.88 | 9 | 1.48 | 0.708 | 0.914 | 1.51 | 1.57 | 0.564 | 1.32 | 0.625 | 0.778 | 7.39 | 0.574 | 1.07 | 0.899
8 | LIHLHYIRRDF [BBS4_Y43_K46R_YF] | 1.28 | 0.817 | 0.854 | 1.1 | 0.669 | 0.707 | 0.521 | 0.732 | 0.564 | 1.02 | 0.503 | 0.581 | 0.972 | 0.419 | 0.333 | 0.448
9 | LISVSYDDWDF [GRIN2A_Y281_YF] | 1.12 | 0.797 | 1.36 | 3.36 | 1.46 | 1 | 1.08 | 1.09 | 19.4 | 2.44 | 0.953 | 0.893 | 2.06 | 1.03 | 1.64 | 1.07
10 | LLTALYFISWG [KCNH2_Y780_R784W] | 1.01 | 0.891 | 0.666 | 1.51 | 1.04 | 0.786 | 0.847 | 1.23 | 0.782 | 1.58 | 1.59 | 2.03 | 1.95 | 3.92 | 1.09 | 2.27

Now from value to sequence, other results behind:

Row | SH2 binding enrichment (Grb2 SH2) | SH2 binding enrichment (SHP2-C SH2) | SH2 binding enrichment (c-Src SH2) | Sequence | phosphorylation enrichment (AncSZ) | phosphorylation enrichment (EPHB1) | phosphorylation enrichment (EPHB2) | phosphorylation enrichment (FGFR1) | phosphorylation enrichment (FGFR3) | phosphorylation enrichment (Fer (mouse)) | phosphorylation enrichment (Fes) | phosphorylation enrichment (Fyn) | phosphorylation enrichment (Hck) | phosphorylation enrichment (Jak2) | phosphorylation enrichment (MERTK) | phosphorylation enrichment (c-Abl (mouse)) | phosphorylation enrichment (c-Src)
11 | 0.691 | 0.682 | 0.559 | LHAAAYRNALA [UQCRC2_Y182] | 0.686 | 0.362 | 0.491 | 0.415 | 0.402 | 0.33 | 0.871 | 0.55 | 0.484 | 0.594 | 0.407 | 0.303 | 0.398
12 | 1.54 | 1.56 | 1.44 | LITTLYSGFLG [KCNQ1_Y267_I268S] | 1.38 | 0.965 | 0.611 | 0.339 | 0.755 | 0.824 | 1.08 | 5.49 | 3.96 | 0.992 | 3.39 | 1.22 | 6.52
13 | 1.26 | 0.866 | 2.2 | LLQKTYNYNVL [SLC4A1_Y553_P548L] | 1.26 | 0.745 | 1.7 | 1.23 | 1.06 | 0.496 | 1.52 | 1.07 | 1.01 | 0.834 | 0.694 | 0.716 | 0.851
14 | 1.03 | 1 | 1.11 | LLREWYVQDPF [SIX3_Y225_L226V_YF] | 0.961 | 0.673 | 0.621 | 0.766 | 0.998 | 0.576 | 0.977 | 0.438 | 0.522 | 0.892 | 0.443 | 0.528 | 0.466
15 | 0.623 | 5.07 | 1.71 | LNAGAYSKVVQ [PPT1_Y172] | 1.12 | 0.703 | 0.557 | 0.41 | 0.686 | 1.02 | 0.974 | 0.529 | 0.357 | 1.28 | 0.627 | 0.994 | 0.84
16 | 0.974 | 1.04 | 12.2 | LNEVGYDDIGG [VCP_Y203] | 1.42 | 1.4 | 1.04 | 1.07 | 1.72 | 0.861 | 2.47 | 1.15 | 1.36 | 1.9 | 0.827 | 1.09 | 0.812

From the supplement of paper PMC10065799, “High-throughput profiling of sequence recognition by tyrosine kinases and SH2 domains using bacterial peptide display” (eLife, 2023)
